Test in all cases: HTRF; biotin-labelled antigen with Streptavidin-Tb cryptate
Assay [1] deals with T1, rat ANGPTL3(17-455)-His (rat, biotin-labelled in the ELISA and HTRF assays (sites not given)).
T1 construct: also called full-length rat ANGPTL3
T1 chain: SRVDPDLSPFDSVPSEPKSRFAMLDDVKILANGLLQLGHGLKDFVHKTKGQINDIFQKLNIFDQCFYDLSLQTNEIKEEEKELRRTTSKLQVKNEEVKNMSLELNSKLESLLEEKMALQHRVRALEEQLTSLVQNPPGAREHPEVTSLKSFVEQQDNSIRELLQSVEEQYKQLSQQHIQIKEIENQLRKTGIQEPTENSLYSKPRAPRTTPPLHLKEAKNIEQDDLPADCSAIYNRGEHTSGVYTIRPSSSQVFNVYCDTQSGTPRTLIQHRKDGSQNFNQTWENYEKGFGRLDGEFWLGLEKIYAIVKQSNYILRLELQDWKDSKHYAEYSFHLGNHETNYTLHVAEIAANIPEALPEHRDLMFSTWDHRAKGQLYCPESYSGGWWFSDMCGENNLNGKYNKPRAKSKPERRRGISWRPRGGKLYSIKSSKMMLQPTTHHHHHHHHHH

Assay [2] addresses T2, human-ANGPTL3(17-460)-His (human, UniProt Q9Y5C1 17-460, biotin-labelled (labelling kit, sites not stated)).
T2 construct: also called full-length human ANGPTL3
T2 sequence: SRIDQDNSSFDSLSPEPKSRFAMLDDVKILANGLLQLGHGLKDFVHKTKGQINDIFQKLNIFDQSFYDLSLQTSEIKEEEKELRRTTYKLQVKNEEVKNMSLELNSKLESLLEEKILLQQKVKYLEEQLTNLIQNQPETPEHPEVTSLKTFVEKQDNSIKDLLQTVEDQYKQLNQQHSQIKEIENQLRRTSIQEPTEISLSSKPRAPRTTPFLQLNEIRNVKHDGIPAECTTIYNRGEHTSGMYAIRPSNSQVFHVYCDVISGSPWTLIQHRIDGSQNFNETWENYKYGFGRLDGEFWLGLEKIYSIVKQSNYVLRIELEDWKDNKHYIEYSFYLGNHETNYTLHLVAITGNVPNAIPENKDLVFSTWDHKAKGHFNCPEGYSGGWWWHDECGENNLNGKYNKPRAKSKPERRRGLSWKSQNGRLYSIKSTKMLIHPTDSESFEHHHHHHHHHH

The target of assay [3] is T3, cynomolgus monkey ANGPTL3(17-460)-His (cynomolgus monkey, UniProt Q9Y5C1 17-460 (human entry), biotin-labelled in the ELISA and HTRF assays (sites not given)).
T3 construct: also called full-length cynomolgus monkey ANGPTL3; Cyno ANGPTL3
T3 chain: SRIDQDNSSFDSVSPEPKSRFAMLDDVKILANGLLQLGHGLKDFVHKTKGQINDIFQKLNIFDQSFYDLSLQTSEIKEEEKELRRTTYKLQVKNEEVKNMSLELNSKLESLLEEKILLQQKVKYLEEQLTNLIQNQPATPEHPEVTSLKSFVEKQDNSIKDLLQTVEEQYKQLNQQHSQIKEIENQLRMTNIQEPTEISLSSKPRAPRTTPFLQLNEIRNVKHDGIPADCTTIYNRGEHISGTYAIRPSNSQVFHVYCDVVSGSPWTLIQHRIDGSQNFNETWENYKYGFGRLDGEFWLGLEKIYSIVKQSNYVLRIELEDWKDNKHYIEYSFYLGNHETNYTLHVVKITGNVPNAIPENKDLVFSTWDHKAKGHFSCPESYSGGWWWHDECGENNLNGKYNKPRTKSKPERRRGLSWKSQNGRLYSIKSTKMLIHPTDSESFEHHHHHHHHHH

In assay [4] the target is T4, mouse ANGPTL3(17-455)-His (mouse, UniProt Q9R182 17-455, biotin-labelled in the ELISA and HTRF assays (sites not given)).
T4 construct: also called full-length mouse ANGPTL3
T4 sequence: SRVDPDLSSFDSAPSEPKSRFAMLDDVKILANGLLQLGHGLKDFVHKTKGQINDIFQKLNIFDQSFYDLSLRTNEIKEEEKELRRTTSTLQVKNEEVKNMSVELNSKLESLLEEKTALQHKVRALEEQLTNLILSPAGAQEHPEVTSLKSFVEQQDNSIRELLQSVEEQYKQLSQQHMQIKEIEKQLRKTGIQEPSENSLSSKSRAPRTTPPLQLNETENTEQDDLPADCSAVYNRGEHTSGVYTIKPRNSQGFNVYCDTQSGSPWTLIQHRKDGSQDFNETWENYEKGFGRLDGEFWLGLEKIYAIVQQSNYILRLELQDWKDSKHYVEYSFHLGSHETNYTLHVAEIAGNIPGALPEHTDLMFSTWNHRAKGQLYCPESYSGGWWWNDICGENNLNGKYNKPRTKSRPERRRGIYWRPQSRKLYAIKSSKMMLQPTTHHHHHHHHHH

B1: P3G (antibody, human IgG4 S228P, kappa, V domains shown)
VH: QVQLVQSGAEVKKPGASVKVSCKSSGYTFTDYYLHWLRQAPGQGPEWMGWISPNSGGTSYAQKFQGRVTMTRDTSISTAYMELSSLRSDDTAVYYCARDIATLGNFFTYGMDVWGQGTTVTVSS
VL: DIQLTQSPSSLSASVGDRVTITCRASQGIRNDLGWYQQKPGKAPKLLIYAASSLQSGVPSRFSGSGSGTDFTLTISSLQPEDFATYYCQQSYSSWTFGQGTKVEIKR
notes: also called anti-ANGPTL3 antibody P3G; P3 (variable regions)
As to B1, the half-maximal effective concentration (EC50) (in general, the concentration that produces a half-maximal response) in assay [1] was 597 pM; in assay [2], 929 pM; in assay [3] it was 502 pM; in assay [4], 638 pM.

B2: P8G (antibody, human IgG4 S228P, kappa, V domains shown)
VH: QVQLVQSGAEVKKPGASVKVSCKASGYTFTSYDINWVRQAPGQGLEWVGLINPRDDSTSYAQKFQGRVTMTRDTSTSTMYMELSSLRSEDTAVYFCARDLGSIREVLYYGMDVWGQGTTVTVSS
VL: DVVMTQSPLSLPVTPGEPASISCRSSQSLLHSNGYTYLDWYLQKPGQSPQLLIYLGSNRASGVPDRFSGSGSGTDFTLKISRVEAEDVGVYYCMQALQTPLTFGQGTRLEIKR
notes: also called anti-ANGPTL3 antibody P8G; P8 (variable regions)
In the case of B2, the EC50 was determined as 484 pM in assay [1], 784 pM in assay [2], 303 pM in assay [3] and 450 pM in assay [4].
